Target: T1, uncleavable form of transmembrane TNF-α (deletion mutant, amino acids +1 through +12 deleted) expressed on … (UniProt P01375 1-233)
T1 construct: whole, on cells; The deletion of +1 to +12 cannot be written as substitutions, so it is described under detail; also called deletion mutant transmembrane TNF-α resistant to TACE-mediated cleavage
Test: flow cytometry saturation binding on transmembrane TNF-α-transfected NS0 cells
Method: Transmembrane TNF-α-transfected NS0 cells were incubated with serial log dilutions of m357-IgG (∘) or h357-IgG antibodies for 1 hr at 4° C. The cells were washed and incubated with Alexa Fluor 488 goat anti-mouse IgG (H+L) for m357-IgG and Alexa Fluor 647 goat anti-human IgG (H+L) for h357-IgG, respectively for 1 hr at 4° C. The cell were then washed and analyzed by a FACSCalibur flow cytometer; and
Transmembrane TNF-α transfected NS0 cells were incubated with serial log dilutions of m357 IgG and h357 IgG for 1 hour at 4° C. in phosphate buffered saline (PBS) containing 2% of a fetal bovine serum (fluorescence-activated cell sorting [FACS] buffer). Cells were washed with a FACS buffer 3 times and were then stained with an Alexa Fluor 488 goat anti-mouse IgG (H+L) for m357 IgG and an Alexa Fluor 647 goat anti-human IgG (H+L) for h357 IgG, respectively for 1 hour at 4° C. Fluorescence intensities were measured using a FACSCalibur flow cytometer (Becton Dickinson, San Jose, Calif.).
TNF-α exists as a membrane associated precursor (transmembrane TNF-α) from which a mature soluble form is released by proteolytic cleavage mediated by the TNF-α converting enzyme (TACE). […]

Kd: 0.012 µM
B1: m357 IgG (murine anti-human TNF-α monoclonal antibody from hybridoma 357-104-4, ECACC No. 92030603) (antibody, V domains shown)
VH: VKLQESGGGWVQPGGSMKLSCIASGFTFSNYWMNWVRQSPEKGLEWVAEVRLQSDNFTTHYAESVKGRFTISRDDSKSGVYLQMNNLGAEDTGIYYCTPFAYWGQGTTVTVSS
VL: EIVLTQSPPITSASPGEKVTMTCSASSSVSFMYWYQQKPGSSPRLLIYDASILASGVPVRFSGSGSGTSYSLTISRMEAEDVATYYCQQWSDYSPRTFGGGTKLEIK
notes: Whole murine IgG; also called m35-IgG

From patent US20120100132A1 (INDUSTRIAL TECHNOLOGY RESEARCH INSTITUTE, published 2012)
